Test results published in PMC2755582 (Journal of molecular biology, 2009).

Tests used:
[1] = biological target: Uroplakin Ia (Mus musculus) (UniProt Q9D132); details: cited from earlier work
uroplakin IIIa = biological target: T1, uroplakin IIIa (mouse, UniProt Q9JKX8 19-287); assay: cryo-EM structure
T1 sequence (looked up): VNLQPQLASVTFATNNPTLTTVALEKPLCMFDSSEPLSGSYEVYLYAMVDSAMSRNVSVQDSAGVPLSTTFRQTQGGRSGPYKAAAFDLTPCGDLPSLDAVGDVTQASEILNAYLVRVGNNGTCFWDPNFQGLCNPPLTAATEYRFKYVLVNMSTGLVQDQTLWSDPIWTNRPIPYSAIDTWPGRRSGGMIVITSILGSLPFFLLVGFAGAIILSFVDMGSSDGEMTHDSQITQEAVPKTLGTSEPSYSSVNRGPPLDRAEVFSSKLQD

uroplakin Ia = biological target: T2, uroplakin Ia (mouse, UniProt Q9D132 1-257, high mannose glycan at its single glycosylation site); assay: cryo-EM structure
T2 sequence (looked up): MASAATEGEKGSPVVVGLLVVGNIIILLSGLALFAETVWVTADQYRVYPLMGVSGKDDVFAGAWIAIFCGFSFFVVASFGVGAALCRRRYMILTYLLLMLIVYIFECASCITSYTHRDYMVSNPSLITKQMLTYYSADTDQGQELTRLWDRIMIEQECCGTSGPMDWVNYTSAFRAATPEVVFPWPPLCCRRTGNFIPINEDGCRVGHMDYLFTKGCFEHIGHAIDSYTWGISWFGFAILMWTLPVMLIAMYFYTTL

Molecule: FimH (from UniProt P08191)
- Kd [1]: 100 nM

B1: uroplakin Ib (natural protein, mouse, UniProt Q9Z2C6 1-260, looked up)
chain: MAKDDSTVRCFQGLLIFGHVIVGMCGIALTAECIFFVSDQHSLYPLLEATNNDDIFGAAWIGMFVGICLFCLSVLAIVGIMKSNRKILLAYFIMMFIVYGFEVASCITAATQRDFFTTNLFLKQMLMRYQNNSPPTNDDEWKNNGVTKTWDRLMLQDHCCGVNGPSDWQKYTSAFRVENNDADYPWPRQCCVMDKLKEPLNLDACKLGVPGYYHSQGCYELISGPMDRHAWGVAWFGFAILCWTFWVLLGTMFYWSRIEY
- binding result (uroplakin IIIa): binds

B2: uroplakin II (natural protein, mouse, UniProt P38575 85-184, looked up)
chain: ELVSVVDSGSGYTVTRLSAYQVTNLTPGTKYYISYRVQKGTSTESSPETPMSTLPRKNMESIGLGMARTGGMVVITVLLSVAMFLLVVGLIVALHWDARK
- binding result (uroplakin Ia): binds
